Assay results published in patent US20190276511A1 (BIONTECH RNA PHARMACEUTICALS, published 2019).

Columns and labels:
OX40-Fc = target: T1, OX40-Fc (human, UniProt P43489 29-214); experiment: ELISA, coated receptor-Fc
T1 construct: extracellular domain; hinge included for covalent assembly; also called OX40 receptor-Fc fusion protein; not shown: human Fc gamma 1 region including the hinge region
T1 sequence (looked up): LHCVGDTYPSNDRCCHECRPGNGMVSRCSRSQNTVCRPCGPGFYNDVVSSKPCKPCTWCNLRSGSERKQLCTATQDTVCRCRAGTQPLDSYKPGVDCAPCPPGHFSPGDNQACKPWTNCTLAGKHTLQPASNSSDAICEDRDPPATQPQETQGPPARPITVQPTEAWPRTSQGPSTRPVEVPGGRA

4-1BB-Fc [1] = target: T2, 4-1BB-Fc (human, UniProt Q07011 24-186); experiment: ELISA, coated receptor-Fc
T2 construct: extracellular domain; hinge included for covalent assembly; also called 4-1BB receptor-Fc fusion protein; not shown: human Fc gamma 1 region including the hinge region

OX40 receptor on cells = target: T3, OX40 receptor on cells (human, UniProt P43489 29-277); experiment: cell-based or functional assay
T3 sequence (looked up): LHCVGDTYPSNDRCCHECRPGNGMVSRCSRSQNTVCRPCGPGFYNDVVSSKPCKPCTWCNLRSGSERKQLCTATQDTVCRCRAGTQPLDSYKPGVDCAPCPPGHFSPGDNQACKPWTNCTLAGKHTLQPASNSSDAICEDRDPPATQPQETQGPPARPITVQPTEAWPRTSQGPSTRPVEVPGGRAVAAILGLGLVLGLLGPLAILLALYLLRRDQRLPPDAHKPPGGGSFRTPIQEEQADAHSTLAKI

4-1BB receptor on cells = 4-1BB receptor on cells (human, UniProt Q07011 24-255); experiment: cell-based or functional assay
4-1BB receptor on cells, sequence (Q07011 24-255): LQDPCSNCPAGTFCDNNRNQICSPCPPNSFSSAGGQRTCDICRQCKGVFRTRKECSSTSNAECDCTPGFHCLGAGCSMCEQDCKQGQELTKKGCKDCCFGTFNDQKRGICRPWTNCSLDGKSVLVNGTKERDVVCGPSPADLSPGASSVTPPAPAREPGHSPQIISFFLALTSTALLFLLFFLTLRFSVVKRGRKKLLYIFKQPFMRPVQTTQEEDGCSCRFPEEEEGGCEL

CD40-Fc [2] = target: T4, CD40-Fc (human, UniProt P25942 21-193); experiment: ELISA, coated receptor-Fc
T4 construct: extracellular domain; hinge included for covalent assembly; also called CD40 receptor-Fc fusion protein; not shown: human Fc gamma 1 region including the hinge region
T4 sequence (P25942 21-193 limits assumed): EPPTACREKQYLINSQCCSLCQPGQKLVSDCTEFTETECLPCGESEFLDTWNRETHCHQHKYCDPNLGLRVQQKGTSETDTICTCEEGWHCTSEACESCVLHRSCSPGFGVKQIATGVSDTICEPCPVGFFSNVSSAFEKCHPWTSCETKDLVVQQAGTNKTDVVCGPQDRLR

CD27-Fc [3] = target: T5, CD27-Fc (human, UniProt P26842 20-191); experiment: ELISA, coated receptor-Fc
T5 construct: extracellular domain; hinge included for covalent assembly; also called CD27 receptor-Fc fusion protein; not shown: human Fc gamma 1 region including the hinge region
T5 sequence (looked up): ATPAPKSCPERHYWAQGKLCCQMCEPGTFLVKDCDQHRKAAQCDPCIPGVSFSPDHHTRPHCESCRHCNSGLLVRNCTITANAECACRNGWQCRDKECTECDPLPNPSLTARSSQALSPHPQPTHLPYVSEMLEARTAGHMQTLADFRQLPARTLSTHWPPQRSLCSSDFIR

CD40 receptor on cells = CD40 receptor on cells (human, UniProt P25942 21-277); experiment: cell-based or functional assay
CD40 receptor on cells, sequence (P25942 21-277): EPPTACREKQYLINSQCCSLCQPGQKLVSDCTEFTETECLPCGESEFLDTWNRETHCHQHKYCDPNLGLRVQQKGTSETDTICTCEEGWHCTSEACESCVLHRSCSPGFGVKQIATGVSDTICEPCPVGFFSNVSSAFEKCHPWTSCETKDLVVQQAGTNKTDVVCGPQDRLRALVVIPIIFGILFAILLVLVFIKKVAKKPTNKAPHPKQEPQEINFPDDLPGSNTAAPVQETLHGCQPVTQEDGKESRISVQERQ

4-1BB-Fc [4] = target: T2, 4-1BB-Fc; experiment: ELISA, coated receptor-Fc; remark: listed apart in the source
CD40-Fc [5] = target: T4, CD40-Fc; experiment: ELISA, coated receptor-Fc; remark: listed apart in the source
Description: (§1) Receptor binding of the EHD2-scDuokines was analyzed by ELISA using fusion proteins of the extracellular region of CD40, CD27 and 4-1BB, respectively, with the human Fcγ1 region including the hinge region for covalent assembly (CD40-Fc, CD27-Fc, 4-1BB-Fc). Receptor-Fc fusion proteins (200 ng/well) were coated overnight at 4° C. and remaining binding sites were blocked with PBS, 2% skimmed milk powder (2% MPBS).

CD27-Fc [6] = target: T5, CD27-Fc; experiment: ELISA, coated receptor-Fc; remark: listed apart in the source
Description: as §1

B1: scOX40L-sc4-1BBL (ligand)
chain: QVSHRYPRIQSIKVQFTEYKKEKGFILTSQKEDEIMKVQNNSVIINCDGFYLISLKGYFSQEVNISLHYQKDEEPLFQLKKVRSVNSLMVASLTYKDKVYLNVTTDNTSLDDFHVNGGELILIHQNPGEFCVLGGGSGGGQVSHRYPRIQSIKVQFTEYKKEKGFILTSQKEDEIMKVQNNSVIINCDGFYLISLKGYFSQEVNISLHYQKDEEPLFQLKKVRSVNSLMVASLTYKDKVYLNVTTDNTSLDDFHVNGGELILIHQNPGEFCVLGGGSGGGQVSHRYPRIQSIKVQFTEYKKEKGFILTSQKEDEIMKVQNNSVIINCDGFYLISLKGYFSQEVNISLHYQKDEEPLFQLKKVRSVNSLMVASLTYKDKVYLNVTTDNTSLDDFHVNGGELILIHQNPGEFCVLGGGGSGGGTGGGGSREGPELSPDDPAGLLDLRQGMFAQLVAQNVLLIDGPLSWYSDPGLAGVSLTGGLSYKEDTKELVVAKAGVYYVFFQLELRRVVAGEGSGSVSLALHLQPLRSAAGAAALALTVDLPPASSEARNSAFGFQGRLLHLSAGQRLGVHLHTEARARHAWQLTQGATVLGLFRVTPEIPAGLPSPRSEGGGGSGGGGSGGGGSREGPELSPDDPAGLLDLRQGMFAQLVAQNVLLIDGPLSWYSDPGLAGVSLTGGLSYKEDTKELVVAKAGVYYVFFQLELRRVVAGEGSGSVSLALHLQPLRSAAGAAALALTVDLPPASSEARNSAFGFQGRLLHLSAGQRLGVHLHTEARARHAWQLTQGATVLGLFRVTPEIPAGLPSPRSEGGGGSGGGGSGGGGSREGPELSPDDPAGLLDLRQGMFAQLVAQNVLLIDGPLSWYSDPGLAGVSLTGGLSYKEDTKELVVAKAGVYYVFFQLELRRVVAGEGSGSVSLALHLQPLRSAAGAAALALTVDLPPASSEARNSAFGFQGRLLHLSAGQRLGVHLHTEARARHAWQLTQGATVLGLFRVTPEIPAGLPSPRSE
notes: scDuokine from HEK293; VH leader left out; also called single-chain Duokine scOX40L-sc4-1BBL; not shown: N-terminal FLAG tag
For B1, the EC50 (OX40-Fc) was 347 nM, the EC50 (4-1BB-Fc [1]) was 4.61 nM and the “Receptor activation (EC50, nM)” value (OX40 receptor on cells) was 0.56 nM. For the same binder, the “Receptor activation (EC50, nM)” value (4-1BB receptor on cells) was 2.83 nM, the binding result (CD40-Fc [2]) was “no binding (tested: 100 nM (FIG. 10))” and the binding result (CD27-Fc [3]) was “no binding (tested: 100 nM (FIG. 10))”.

B2: scCD40L-EHD2-scCD27L (ligand)
chain: GDQNPQIAAHVISEASSKTTSVLQWAEKGYYTMSNNLVTLENGKQLTVKRQGLYYIYAQVTFCSNREASSQAPFIASLCLKSPGRFERILLRAANTHSSAKPCGQQSIHLGGVFELQPGASVFVNVTDPSQVSHGTGFTSFGLLKLGGGSGGGGDQNPQIAAHVISEASSKTTSVLQWAEKGYYTMSNNLVTLENGKQLTVKRQGLYYIYAQVTFCSNREASSQAPFIASLCLKSPGRFERILLRAANTHSSAKPCGQQSIHLGGVFELQPGASVFVNVTDPSQVSHGTGFTSFGLLKLGGGSGGGGDQNPQIAAHVISEASSKTTSVLQWAEKGYYTMSNNLVTLENGKQLTVKRQGLYYIYAQVTFCSNREASSQAPFIASLCLKSPGRFERILLRAANTHSSAKPCGQQSIHLGGVFELQPGASVFVNVTDPSQVSHGTGFTSFGLLKLGGSGGDFTPPTVKILQSSCDGGGHFPPTIQLLCLVSGYTPGTINITWLEDGQVMDVDLSTASTTQEGELASTQSELTLSQKHWLSDRTYTCQVTYQGHTFEDSTKKCADSNGGSGGSLGWDVAELQLNHTGPQQDPRLYWQGGPALGRSFLHGPELDKGQLRIHRDGIYMVHIQVTLAICSSTTASRHHPTTLAVGICSPASRSISLLRLSFHQGCTIASQRLTPLARGDTLCTNLTGTLLPSRNTDETFFGVQWVRPGGGSGGGSLGWDVAELQLNHTGPQQDPRLYWQGGPALGRSFLHGPELDKGQLRIHRDGIYMVHIQVTLAICSSTTASRHHPTTLAVGICSPASRSISLLRLSFHQGCTIASQRLTPLARGDTLCTNLTGTLLPSRNTDETFFGVQWVRPGGGSGGGSLGWDVAELQLNHTGPQQDPRLYWQGGPALGRSFLHGPELDKGQLRIHRDGIYMVHIQVTLAICSSTTASRHHPTTLAVGICSPASRSISLLRLSFHQGCTIASQRLTPLARGDTLCTNLTGTLLPSRNTDETFFGVQWVRP
notes: From HEK293; Ig kappa leader left out; dimer through EHD2, about 50% covalently linked, SEC major peak at monomer size; also called EHD2-scDuokine scCD40L-EHD2-scCD27L; not shown: N-terminal FLAG tag
With B2 the “Receptor activation (EC50, nM), IL-8 release from HT1080 cells” value (CD40 receptor on cells) was 2 nM, the binding result (4-1BB-Fc [4]) was “no binding (tested: 100 nM (FIG. 16))” and the EC50 (CD40-Fc [5]) was 4.05 nM. It also gave an EC50 (CD27-Fc [6]) of 2.03 nM.
